Assay results: article PMC10786891, “Massively parallel profiling of RNA-targeting CRISPR-Cas13d”

Target: T1, EsCas13d, nuclease-dead (Eubacterium siraeum, UniProt B0MS50, R295A;H300A;R849A;H854A)
T1 sequence: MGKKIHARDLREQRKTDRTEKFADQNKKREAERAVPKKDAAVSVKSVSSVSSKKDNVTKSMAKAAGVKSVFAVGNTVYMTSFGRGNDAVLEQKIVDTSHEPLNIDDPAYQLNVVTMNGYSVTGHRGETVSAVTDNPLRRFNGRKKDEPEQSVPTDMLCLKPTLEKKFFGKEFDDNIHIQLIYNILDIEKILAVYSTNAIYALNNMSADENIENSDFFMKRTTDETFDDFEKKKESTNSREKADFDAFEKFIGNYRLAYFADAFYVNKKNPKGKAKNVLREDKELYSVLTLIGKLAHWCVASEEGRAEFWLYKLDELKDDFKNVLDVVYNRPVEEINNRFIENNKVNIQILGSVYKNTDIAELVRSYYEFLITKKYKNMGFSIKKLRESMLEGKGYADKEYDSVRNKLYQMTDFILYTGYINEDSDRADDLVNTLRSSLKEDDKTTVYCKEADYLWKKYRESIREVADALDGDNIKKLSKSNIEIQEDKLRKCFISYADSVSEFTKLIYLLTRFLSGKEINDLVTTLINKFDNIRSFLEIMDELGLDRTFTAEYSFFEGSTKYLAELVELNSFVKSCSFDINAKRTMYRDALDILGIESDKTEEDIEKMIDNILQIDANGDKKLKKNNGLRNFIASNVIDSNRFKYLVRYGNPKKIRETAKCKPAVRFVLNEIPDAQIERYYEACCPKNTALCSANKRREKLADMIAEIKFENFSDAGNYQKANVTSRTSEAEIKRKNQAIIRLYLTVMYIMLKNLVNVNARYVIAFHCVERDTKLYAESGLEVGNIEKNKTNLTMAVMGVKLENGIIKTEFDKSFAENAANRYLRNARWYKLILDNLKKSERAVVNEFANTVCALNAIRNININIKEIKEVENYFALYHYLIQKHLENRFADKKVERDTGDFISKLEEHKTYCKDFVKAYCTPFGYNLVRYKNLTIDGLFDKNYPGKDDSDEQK
Test: crRNA (strand 1, pre-loaded); Mg2+; 40 mM Tris-HCl pH 7.5, 150 mM NaCl, 6 mM MgCl2, 1 mM DTT, 0.1% Tween-20, 0.2 mg/ml BSA; 25 C; 10 min per concentration, then washed
Details: tags: His6-TwinStrep-SUMO cleaved; N-terminal SNAP kept (SNAP-Surface 488); label: 3' end held by stalled T7 RNA polymerase

B1: target 1 U8A,C22A (mixed)
RNA 1: CACCCGUGCAAAAAUGCAGGGGUCUAAAACUGAGCGGAUAACCUCUCUAUGG
RNA 2: GGGAAUGGAUCCACAUCUACGAAUUCGUAACAUAGAGAGGUUAACCGCUCACCGAGAUCGGAAGAGCACACGU
With B1 the Kd was 31.1 ± 2.2 nM.

B2: target 1 insG 3' of 21,insA 3' of 3 (mixed)
RNA 1: CACCCGUGCAAAAAUGCAGGGGUCUAAAACUGAGCGGAUAACCUCUCUAUGG
RNA 2: GGGAAUGGAUCCACAUCUACGAAUUCGUACCGAUAGAGAGGUUAUCCGCUACACCGAGAUCGGAAGAGCACACGU
Work on B2 yielded a Kd of 54 ± 12 nM.

B3: target 1 G5C,G15U (mixed)
RNA 1: CACCCGUGCAAAAAUGCAGGGGUCUAAAACUGAGCGGAUAACCUCUCUAUGG
RNA 2: GGGAAUGGAUCCACAUCUACGAAUUCGUACCAUAGAUAGGUUAUCCCCUCACCGAGAUCGGAAGAGCACACGU
Work on B3 yielded a Kd of 28.6 ± 2.4 nM.

B4: target 3 C1G,A9U (mixed)
RNA 1: CACCCGUGCAAAAUUGCAGGGGUCUAAAACGACCUGAAUAUUUCAGAUCAAA
RNA 2: GGGAAUGGAUCCACAUCUACGAAUUCGUUUUUGAUCUGAAAUUUUCAGGUGUGCAGAUCGGAAGAGCACACGU
B4 was tested, and the Kd was 100 ± 40 nM.

B5: target 3 insC 3' of 11,insG 3' of 7 (mixed)
RNA 1: CACCCGUGCAAAAUUGCAGGGGUCUAAAACGACCUGAAUAUUUCAGAUCAAA
RNA 2: GGGAAUGGAUCCACAUCUACGAAUUCGUUUUUGAUCUGAAACUAUUGCAGGUCUGCAGAUCGGAAGAGCACACGU
With B5 the Kd was 49 ± 11.5 nM.

B6: target 3 del1,del15 (mixed)
RNA 1: CACCCGUGCAAAAUUGCAGGGGUCUAAAACGACCUGAAUAUUUCAGAUCAAA
RNA 2: GGGAAUGGAUCCACAUCUACGAAUUCGUUUUUGAUCGAAAUAUUCAGGUUGCAGAUCGGAAGAGCACACGU
In the case of B6, the Kd is reported as 62 ± 18 nM.

B7: target 3 C1G,G3C (mixed)
RNA 1: CACCCGUGCAAAAUUGCAGGGGUCUAAAACGACCUGAAUAUUUCAGAUCAAA
RNA 2: GGGAAUGGAUCCACAUCUACGAAUUCGUUUUUGAUCUGAAAUAUUCAGCUGUGCAGAUCGGAAGAGCACACGU
Work on B7 yielded a Kd of 26.5 ± 5 nM.

B8: target 3 insA 3' of 7,insG 3' of 7 (mixed)
RNA 1: CACCCGUGCAAAAUUGCAGGGGUCUAAAACGACCUGAAUAUUUCAGAUCAAA
RNA 2: GGGAAUGGAUCCACAUCUACGAAUUCGUUUUUGAUCUGAAAUAUUAGCAGGUCUGCAGAUCGGAAGAGCACACGU
B8 was tested, and the Kd was 30.4 ± 3.7 nM.

B9: target 3 insA 3' of 22,insU 3' of 11 (mixed)
RNA 1: CACCCGUGCAAAAUUGCAGGGGUCUAAAACGACCUGAAUAUUUCAGAUCAAA
RNA 2: GGGAAUGGAUCCACAUCUACGAAUUCGUUUAUUGAUCUGAAAUUAUUCAGGUCUGCAGAUCGGAAGAGCACACGU
For B9, the Kd was 72.5 ± 15.5 nM.

B10: target 3 U2G,G4A (mixed)
RNA 1: CACCCGUGCAAAAUUGCAGGGGUCUAAAACGACCUGAAUAUUUCAGAUCAAA
RNA 2: GGGAAUGGAUCCACAUCUACGAAUUCGUUUUUGAUCUGAAAUAUUCAAGGCUGCAGAUCGGAAGAGCACACGU
B10 gave a Kd of 2.01 ± 0.17 nM.

B11: target 3 C1U,U2C (mixed)
RNA 1: CACCCGUGCAAAAUUGCAGGGGUCUAAAACGACCUGAAUAUUUCAGAUCAAA
RNA 2: GGGAAUGGAUCCACAUCUACGAAUUCGUUUUUGAUCUGAAAUAUUCAGGCUUGCAGAUCGGAAGAGCACACGU
B11 was tested, and the Kd was 54 ± 18.5 nM.

B12: target 3 A18U,U22A (mixed)
RNA 1: CACCCGUGCAAAAUUGCAGGGGUCUAAAACGACCUGAAUAUUUCAGAUCAAA
RNA 2: GGGAAUGGAUCCACAUCUACGAAUUCGUUAUUGUUCUGAAAUAUUCAGGUCUGCAGAUCGGAAGAGCACACGU
B12 gave a Kd of 97.5 ± 30.5 nM.

B13: target 3 U2A,U7C (mixed)
RNA 1: CACCCGUGCAAAAUUGCAGGGGUCUAAAACGACCUGAAUAUUUCAGAUCAAA
RNA 2: GGGAAUGGAUCCACAUCUACGAAUUCGUUUUUGAUCUGAAAUAUCCAGGACUGCAGAUCGGAAGAGCACACGU
For B13, the Kd was 38 ± 13 nM.

B14: target 3 insU 3' of 22,insG 3' of 1 (mixed)
RNA 1: CACCCGUGCAAAAUUGCAGGGGUCUAAAACGACCUGAAUAUUUCAGAUCAAA
RNA 2: GGGAAUGGAUCCACAUCUACGAAUUCGUUUUUUGAUCUGAAAUAUUCAGGUCGUGCAGAUCGGAAGAGCACACGU
B14 gave a Kd of 32.5 ± 5.5 nM.

B15: target 3 C1A,G3C (mixed)
RNA 1: CACCCGUGCAAAAUUGCAGGGGUCUAAAACGACCUGAAUAUUUCAGAUCAAA
RNA 2: GGGAAUGGAUCCACAUCUACGAAUUCGUUUUUGAUCUGAAAUAUUCAGCUAUGCAGAUCGGAAGAGCACACGU
B15 was tested, and the Kd was 65.5 ± 29.5 nM.

B16: target 3 C6U,A12C (mixed)
RNA 1: CACCCGUGCAAAAUUGCAGGGGUCUAAAACGACCUGAAUAUUUCAGAUCAAA
RNA 2: GGGAAUGGAUCCACAUCUACGAAUUCGUUUUUGAUCUGACAUAUUUAGGUCUGCAGAUCGGAAGAGCACACGU
Work on B16 yielded a Kd of 72 ± 12.5 nM.

B17: target 3 insA 3' of 2,insU 3' of 1 (mixed)
RNA 1: CACCCGUGCAAAAUUGCAGGGGUCUAAAACGACCUGAAUAUUUCAGAUCAAA
RNA 2: GGGAAUGGAUCCACAUCUACGAAUUCGUUUUUGAUCUGAAAUAUUCAGGUACUUGCAGAUCGGAAGAGCACACGU
B17 gave a Kd of 85.5 ± 20.5 nM.

B18: target 3 G3C,A9G (mixed)
RNA 1: CACCCGUGCAAAAUUGCAGGGGUCUAAAACGACCUGAAUAUUUCAGAUCAAA
RNA 2: GGGAAUGGAUCCACAUCUACGAAUUCGUUUUUGAUCUGAAAUGUUCAGCUCUGCAGAUCGGAAGAGCACACGU
B18 was tested, and the Kd was 55.5 ± 5.5 nM.

B19: target 3 insC 3' of 22,insA 3' of 3 (mixed)
RNA 1: CACCCGUGCAAAAUUGCAGGGGUCUAAAACGACCUGAAUAUUUCAGAUCAAA
RNA 2: GGGAAUGGAUCCACAUCUACGAAUUCGUUUCUUGAUCUGAAAUAUUCAGGAUCUGCAGAUCGGAAGAGCACACGU
Work on B19 yielded a Kd of 65.5 ± 14 nM.

B20: target 3 insU 3' of 9,insA 3' of 6 (mixed)
RNA 1: CACCCGUGCAAAAUUGCAGGGGUCUAAAACGACCUGAAUAUUUCAGAUCAAA
RNA 2: GGGAAUGGAUCCACAUCUACGAAUUCGUUUUUGAUCUGAAAUAUUUCAAGGUCUGCAGAUCGGAAGAGCACACGU
With B20 the Kd was 85 ± 40 nM.

B21: target 3 insC 3' of 9,insU 3' of 3 (mixed)
RNA 1: CACCCGUGCAAAAUUGCAGGGGUCUAAAACGACCUGAAUAUUUCAGAUCAAA
RNA 2: GGGAAUGGAUCCACAUCUACGAAUUCGUUUUUGAUCUGAAAUACUUCAGGUUCUGCAGAUCGGAAGAGCACACGU
For B21, the Kd was 114 ± 29 nM.

B22: target 3 G3C (mixed)
RNA 1: CACCCGUGCAAAAUUGCAGGGGUCUAAAACGACCUGAAUAUUUCAGAUCAAA
RNA 2: GGGAAUGGAUCCACAUCUACGAAUUCGUUUUUGAUCUGAAAUAUUCAGCUCUGCAGAUCGGAAGAGCACACGU
B22 gave a Kd of 19.9 ± 1.35 nM.

B23: target 3 G3U,U7C (mixed)
RNA 1: CACCCGUGCAAAAUUGCAGGGGUCUAAAACGACCUGAAUAUUUCAGAUCAAA
RNA 2: GGGAAUGGAUCCACAUCUACGAAUUCGUUUUUGAUCUGAAAUAUCCAGUUCUGCAGAUCGGAAGAGCACACGU
B23 gave a Kd of 86 ± 36 nM.

B24: target 3 U20A,U21G (mixed)
RNA 1: CACCCGUGCAAAAUUGCAGGGGUCUAAAACGACCUGAAUAUUUCAGAUCAAA
RNA 2: GGGAAUGGAUCCACAUCUACGAAUUCGUUUGAGAUCUGAAAUAUUCAGGUCUGCAGAUCGGAAGAGCACACGU
B24 was tested, and the Kd was 98 ± 39.5 nM.
